Source: paper doi:10.1101/2025.08.18.670068 (2025)

What was measured:
Test in all cases: SPR
[1] = target: soluble CCR8 analogue BM3
[2] = target: soluble CCR8 analogue BM6
[3] = target: soluble CCR8 analogue BM7
[4] = target: soluble CCR8 analogue BM1
[5] = target: soluble CCR8 analogue BM5

Kd [1]: 154 nM
Kd [2]: 552 nM
Kd [3]: 252 nM
Kd [4]: 267 nM
Kd [5]: 629 nM
B1: mAb1 in full length human IgG1 format (antibody, V domains shown)
VH: QSVEESGGRLVTPGTPLTLTCTVSGFSLSNYAMIWVRQAPGEGLEWVGTISLGGYTYYANWAKGRFTISKTSTTVDLKISSPTTEDTATYFCARARWSTDSAIYTYAFDPWGPGTLVTVSS
VL: AYDMTQTPASVEVAVGGTVTIKCQASQSISSYLSWYQQKPGQRPELLIYKASTLASGVSSRFKGSGSGTQFTLTISDLEAADAATYYCQQGYTSSNIDNIFGGGTEVVVK
